According to patent US5747322:
Substitutions are numbered along the chain they refer to. Numbers in names are those of the source.

What was measured:
Z-GPR-pNA = target: T1, Z-GPR-pNA
T1 sequence (peptide, N-terminal Z; C-terminal pNA): GPR

Suc-AAP-Ala-pNA = target: T2, Suc-AAP-Ala-pNA
T2 sequence (peptide, N-terminal Suc; C-terminal pNA): AAPA

Suc-AAP-Leu-pNA = target: T3, Suc-AAP-Leu-pNA
T3 sequence (peptide, N-terminal Suc; C-terminal pNA): AAPL

[1] = target: bovine calf skin collagen (type I collagen) (bovine) (UniProt P02453)

B1: crab collagenase D226G/G189D (enzyme)
chain: IVGGVEAVPNSWPHQAALFIDDMYFCGGSLISPEWILTAAHCMDGAGFVDVVLGAHNIREDEATQVTIQSTDFTVHENYNSFVISNDIAVIRLPSPVTLTAAIATVGLPSTDVGVGTVVTPTGWGLPSDSALGISDVLRQVDVPIMSNADCDAVYGIVTDGNICIDSTGGKDTCNGDSGGPLNYNGLTYGITSFGAAAGCEAGYPGAFTRVTYFLDWIQTQTGITP
Question: B1 was tested. Which kcat /Km (Z-GPR-pNA) did it give?
Answer: The kcat /Km was 14500 M⁻¹ s⁻¹.

Question: What about the kcat /Km (Suc-AAP-Arg-pNA) of the same binder?
Answer: Its kcat /Km is 917000 M⁻¹ s⁻¹.

Question: What about the kcat /Km (Suc-AAP-Lys-pNA) of the same binder?
Answer: The kcat /Km was 23300 M⁻¹ s⁻¹.

Question: What about the kcat /Km (Suc-AAP-Orn-pNA) of the same binder?
Answer: The kcat /Km was 4800 M⁻¹ s⁻¹.

Question: And the kcat /Km (Suc-AAP-Gln-pNA)?
Answer: The kcat /Km was 5500 M⁻¹ s⁻¹.

Question: And the kcat /Km (Suc-AAP-Ala-pNA)?
Answer: The kcat /Km was 867 M⁻¹ s⁻¹.

Question: What about the kcat /Km (Suc-AAP-Met-pNA) of the same binder?
Answer: Its kcat /Km is 23300 M⁻¹ s⁻¹.

Question: And the kcat /Km (Suc-AAP-Leu-pNA)?
Answer: Its kcat /Km is 51700 M⁻¹ s⁻¹.

Question: And the kcat /Km (Suc-AAP-Phe-pNA)?
Answer: The kcat /Km was 23300 M⁻¹ s⁻¹.

B2: recombinant crab serine collagenase 1 (mature, wild type) (enzyme)
chain: B1 chain with D172G, G206D
Question: Which results are given for B2?
Answer: kcat /Km (Z-GPR-pNA): 7170 M⁻¹ s⁻¹; kcat /Km (Suc-AAP-Arg-pNA): 1.33e+06 M⁻¹ s⁻¹; kcat /Km (Suc-AAP-Lys-pNA): 60000 M⁻¹ s⁻¹; kcat /Km (Suc-AAP-Orn-pNA): 7830 M⁻¹ s⁻¹; kcat /Km (Suc-AAP-Gln-pNA): 18300 M⁻¹ s⁻¹; kcat /Km (Suc-AAP-Ala-pNA): 2170 M⁻¹ s⁻¹; kcat /Km (Suc-AAP-Met-pNA): 70000 M⁻¹ s⁻¹; kcat /Km (Suc-AAP-Leu-pNA): 152000 M⁻¹ s⁻¹; kcat /Km (Suc-AAP-Phe-pNA): 158000 M⁻¹ s⁻¹; collagen cleavage (3/4, 1/4 fragmentation pattern) [1]: > 50%

B3: crab collagenase D226G (enzyme)
chain: B1 chain with D172G
Question: Which kcat /Km (Z-GPR-pNA) does the source give for B3 here?
Answer: Its kcat /Km is 367 M⁻¹ s⁻¹.

Question: What about the kcat /Km (Suc-AAP-Arg-pNA) of the same binder?
Answer: The kcat /Km was 48300 M⁻¹ s⁻¹.

Question: And the kcat /Km (Suc-AAP-Lys-pNA)?
Answer: The kcat /Km was 400 M⁻¹ s⁻¹.

Question: What about the kcat /Km (Suc-AAP-Orn-pNA) of the same binder?
Answer: The kcat /Km was 383 M⁻¹ s⁻¹.

Question: And the kcat /Km (Suc-AAP-Gln-pNA)?
Answer: The kcat /Km was 5500 M⁻¹ s⁻¹.

Question: What about the kcat /Km (Suc-AAP-Ala-pNA) of the same binder?
Answer: The kcat /Km was 317 M⁻¹ s⁻¹.

Question: And the kcat /Km (Suc-AAP-Met-pNA)?
Answer: Its kcat /Km is 48300 M⁻¹ s⁻¹.

Question: And the kcat /Km (Suc-AAP-Leu-pNA)?
Answer: The kcat /Km was 80000 M⁻¹ s⁻¹.

Question: And the kcat /Km (Suc-AAP-Phe-pNA)?
Answer: Its kcat /Km is 115000 M⁻¹ s⁻¹.
